The values that follow come from paper PMC10397247.

Like-named read-outs stand apart in the source and are kept apart here.

In one assay the target is T1, P8A-bH.
T1 chain: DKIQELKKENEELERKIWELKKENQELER
As to the kind of experiment: two-hybrid library CCNG1.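 Also: natural log of median RNA to DNA barcode read ratio; higher means stronger binding.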

The next assay concerns the target T2, P9A-bH.
T2 chain: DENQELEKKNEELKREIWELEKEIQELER
Kind of assay: two-hybrid library CCNG1.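 Also: natural log of median RNA to DNA barcode read ratio; higher means stronger binding.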

Another assay has as its target T3, P8A-bA.
T3 chain: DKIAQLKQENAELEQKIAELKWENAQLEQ
As to the kind of experiment: two-hybrid library CCNG1.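 Also: natural log of median RNA to DNA barcode read ratio; higher means stronger binding.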

Another assay addresses T4, P9A-bA.
T4 chain: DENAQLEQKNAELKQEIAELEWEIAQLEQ
Kind of assay: two-hybrid library CCNG1.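 Also: natural log of median RNA to DNA barcode read ratio; higher means stronger binding.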

The next assay concerns the target T5, 4H3001-AA.
T5 chain: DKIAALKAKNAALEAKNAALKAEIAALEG
Kind of assay: two-hybrid library CCmax.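 Also: natural log of median RNA to DNA barcode read ratio; higher means stronger binding.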

A further assay addresses T6, 4H3015-AA.
T6 chain: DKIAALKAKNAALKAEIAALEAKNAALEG
Kind of assay: two-hybrid library CCmax.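 Also: natural log of median RNA to DNA barcode read ratio; higher means stronger binding.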 The note with it: mean of both orientations.

The target in another assay is T7, 4H3073-AA.
T7 chain: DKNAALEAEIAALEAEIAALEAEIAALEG
Kind of assay: two-hybrid library CCmax. The note with it: mean of both orientations.

The target of the next assay is T8, 4H3340-AA.
T8 chain: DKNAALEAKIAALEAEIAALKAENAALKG
Kind of assay: two-hybrid library CCmax.

The next assay has as its target T9, 4H3381-AA.
T9 chain: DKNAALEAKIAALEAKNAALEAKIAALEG
Kind of assay: two-hybrid library CCmax. The note with it: mean of both orientations.

The target in a further assay is T10, 4H3438-AA.
T10 chain: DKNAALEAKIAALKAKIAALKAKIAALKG
Kind of assay: two-hybrid library CCmax. The note with it: mean of both orientations.

Another assay addresses T11, 4H347-AA.
T11 chain: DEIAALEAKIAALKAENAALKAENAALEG
As to the kind of experiment: two-hybrid library CCmax. The note with it: mean of both orientations.

Another assay concerns the target T12, 4H3493-AA.
T12 chain: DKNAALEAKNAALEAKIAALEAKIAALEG
As to the kind of experiment: two-hybrid library CCmax. The note with it: mean of both orientations.

For another assay, the target named is T13, 4H376-AA.
T13 chain: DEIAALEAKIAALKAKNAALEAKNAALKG
Kind of assay: two-hybrid library CCmax. The note with it: mean of both orientations.

In the next assay the target is T14, 4H406-AA.
T14 chain: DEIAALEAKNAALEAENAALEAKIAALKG
Kind of assay: two-hybrid library CCmax. The note with it: mean of both orientations.

In a further assay the target is T15, 4H452-AA.
T15 chain: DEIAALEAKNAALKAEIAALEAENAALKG
As to the kind of experiment: two-hybrid library CCmax. The note with it: mean of both orientations.

The target in a further assay is T16, 4H56-AA.
T16 chain: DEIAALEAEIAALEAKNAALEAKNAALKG
Kind of assay: two-hybrid library CCmax. The note with it: mean of both orientations.

For another assay, the target named is T17, 4H688-AA.
T17 chain: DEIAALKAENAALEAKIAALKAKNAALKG
Kind of assay: two-hybrid library CCmax.

In the next assay the target is T18, 4H963-AA.
T18 chain: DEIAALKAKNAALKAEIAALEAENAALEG
Kind of assay: two-hybrid library CCmax. The note with it: mean of both orientations.

For the next assay, the target named is T19, 4H_APH.
T19 chain: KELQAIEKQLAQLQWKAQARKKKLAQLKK
Kind of assay: two-hybrid library CCmax.

For a further assay, the target named is T20, 4H_BCR.
T20 chain: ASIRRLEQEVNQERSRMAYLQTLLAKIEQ
Kind of assay: two-hybrid library CCmax. The note with it: mean of both orientations.

The next assay deals with 4H_GCN4. Kind of assay: two-hybrid library CCmax. The note with it: mean of both orientations.
Chain of 4H_GCN4 (chain, as listed by the source): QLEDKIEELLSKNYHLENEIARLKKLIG
A further assay deals with GCN2_T. Kind of assay: two-hybrid library CCmax.
In a further assay the target is T21, APC1015-AA.
T21 chain: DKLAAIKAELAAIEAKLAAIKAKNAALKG
Kind of assay: two-hybrid library CCmax.

The target of another assay is T22, APC1434-AA.
T22 chain: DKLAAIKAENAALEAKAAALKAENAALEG
As to the kind of experiment: two-hybrid library CCmax. The note with it: mean of both orientations.

The next assay has as its target T23, APC2237-AA.
T23 chain: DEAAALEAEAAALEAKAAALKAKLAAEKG
As to the kind of experiment: two-hybrid library CCmax. The note with it: mean of both orientations.

The next assay addresses T24, APC232-AA.
T24 chain: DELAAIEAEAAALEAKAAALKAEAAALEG
As to the kind of experiment: two-hybrid library CCmax. The note with it: mean of both orientations.

The target of another assay is T25, APC2405-AA.
T25 chain: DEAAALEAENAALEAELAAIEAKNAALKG
As to the kind of experiment: two-hybrid library CCmax. The note with it: mean of both orientations.

For a further assay, the target named is T26, APC3645-AA.
T26 chain: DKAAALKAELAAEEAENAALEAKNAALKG
Kind of assay: two-hybrid library CCmax. The note with it: mean of both orientations.

The next assay addresses T27, APC4011-AA.
T27 chain: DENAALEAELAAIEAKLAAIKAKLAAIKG
As to the kind of experiment: two-hybrid library CCmax. The note with it: mean of both orientations.

A further assay has as its target T28, APC4264-AA.
T28 chain: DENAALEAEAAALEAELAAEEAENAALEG
As to the kind of experiment: two-hybrid library CCmax. The note with it: mean of both orientations.

For the next assay, the target named is T29, APC4436-AA.
T29 chain: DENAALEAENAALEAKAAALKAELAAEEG
As to the kind of experiment: two-hybrid library CCmax. The note with it: mean of both orientations.

A further assay addresses T30, APC5383-AA.
T30 chain: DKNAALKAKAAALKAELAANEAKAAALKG
Kind of assay: two-hybrid library CCmax. The note with it: mean of both orientations.

Another assay concerns the target T31, APC6108-AA.
T31 chain: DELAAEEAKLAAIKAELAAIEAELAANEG
As to the kind of experiment: two-hybrid library CCmax. The note with it: mean of both orientations.

The target of the next assay is T32, APC7099-AA.
T32 chain: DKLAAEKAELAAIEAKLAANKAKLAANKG
Kind of assay: two-hybrid library CCmax. The note with it: mean of both orientations.

In another assay the target is T33, APC8191-AA.
T33 chain: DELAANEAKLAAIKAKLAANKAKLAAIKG
As to the kind of experiment: two-hybrid library CCmax. The note with it: mean of both orientations.

The next assay addresses T34, APC8910-AA.
T34 chain: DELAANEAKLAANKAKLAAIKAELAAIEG
Kind of assay: two-hybrid library CCmax. The note with it: mean of both orientations.

For a further assay, the target named is T35, APC9096-AA.
T35 chain: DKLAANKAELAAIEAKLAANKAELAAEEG
Kind of assay: two-hybrid library CCmax. The note with it: mean of both orientations.

The target of the next assay is T36, APC9319-AA.
T36 chain: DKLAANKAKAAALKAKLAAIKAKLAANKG
As to the kind of experiment: two-hybrid library CCmax. The note with it: mean of both orientations.

B1: P8A-bH (peptide)
chain: DKIQELKKENEELERKIWELKKENQELER
Take B1: the interaction score with P8A-bH was 0.54; with P9A-bH, -0.34.

B2: P8A-bA (peptide)
chain: DKIAQLKQENAELEQKIAELKWENAQLEQ
For B2, the values for the interaction score with P8A-bA and with P9A-bA were -0.497 and -0.256, respectively.

B3: 4H3001-AA (peptide)
chain: DKIAALKAKNAALEAKNAALKAEIAALEG
On to B3, for which the interaction score with 4H3001-AA is -1.82; with 4H3015-AA, -1.86; with 4H3073-AA it was -0.938; in the assay with 4H3340-AA (mean of both orientations), -1.44; with 4H3381-AA it was -1.43; with 4H3438-AA, -1.83. Also, the interaction score is -2.08 with 4H347-AA; -1.38 with 4H3493-AA; -1.69 with 4H376-AA; 2.27 with 4H406-AA; -1.76 in the assay with 4H452-AA; -1.87 in the assay with 4H56-AA. Moreover, the interaction score in the assay with 4H688-AA (mean of both orientations) is -1.46; with 4H963-AA it was -1.94; with 4H_APH it was -2; in the assay with 4H_BCR, -2.15; with 4H_GCN4, -2.43; with GCN2_T, -1.9.

B4: 4H3340-AA (peptide)
chain: DKNAALEAKIAALEAEIAALKAENAALKG
Consider B4, for which the interaction score with 4H3340-AA is 1.7; with 4H3381-AA, -1.57; with 4H347-AA, -0.858; with 4H3493-AA, -1.48; with 4H376-AA, -1.48; with 4H406-AA, -1.43. Also, the interaction score is -1.69 with 4H688-AA and -2.28 with 4H963-AA.

B5: APC1015-AA (peptide)
chain: DKLAAIKAELAAIEAKLAAIKAKNAALKG
As for B5, the interaction score was -0.544 in the assay with APC1015-AA; -1.58 with APC1434-AA; -0.0287 with APC2237-AA; 0.0398 in the assay with APC232-AA; -1.26 with APC2405-AA; -1.79 in the assay with APC3645-AA. The interaction score with APC4011-AA was 1.66; with APC4264-AA it was -1.82; with APC4436-AA, -1.14; with APC5383-AA it was -1.69; with APC6108-AA, 0.792; with APC7099-AA, -2.02. Also, the interaction score was -1.8 in the assay with APC8191-AA, -1.34 with APC8910-AA, -1.67 with APC9096-AA and -1.82 with APC9319-AA.
